Results published in publication PMC11602165, “A bacterial transcription activator dedicated to the expression of the enzyme catalyzing the first committed step in fatty acid biosynthesis” (Nucleic Acids Research, 2024).
Several values for one entry are separate records, joined by “and”; a condition that tells them apart may be missing. Equal entries are not always repeated.

How the values were obtained:
[1] = target: AccR (LysR-type transcriptional regulator, SO_0839) (Shewanella oneidensis, UniProt Q8EIK0); assay: ITC in HEPES buffer (Kd […]); also MST ([…]); no binding seen by ITC in Tris buffer
[2] = target: the molecule itself; assay: SEC; His-tagged recombinant AccR purified from E. coli run on a Superdex 200HR 10/30 column (FPLC); two peaks with estimated molecular weights of ~67 and ~140 kDa
[3] = target: the molecule itself; assay: crystal structure; AccR EBD (residues 86-303), apo form, hanging-drop vapor diffusion, 27.5% PEG 4000, 100 mM HEPES pH 7.0, 20°C; space group C2, one dimer in the asymmetric unit

CC(=O)SCCNC(=O)CCNC(=O)[C@H](O)C(C)(C)COP(=O)(O)OP(=O)(O)OC[C@H]1O[C@@H](n2cnc3c(N)ncnc32)[C@H](O)[C@@H]1OP(=O)(O)O [acetyl-CoA]
Kd [1]: 8.4 ± 1.3 µM

B1: AccR (SO_0839), LysR-type transcriptional regulator, His6-tagged recombinant (natural protein, Shewanella oneidensis, UniProt Q8EIK0 1-303, looked up)
chain: MPDLNGMMLFAAVVRAKGFSQAARETGHPKSTISRKIAQLEEELGVRLLQRDTRNLSLTQVGALFYQHCDSIRNEVEAAKAVIESTHDDVSGSLRIAIPVSFSQELIANLCSGFMRLYPNVELDVQFTDNDIGLVGEGYDIAIKYGPLQSSDLVARLLFERQPILVASPGYLKTRGTPATPKELSDHSGILLGTSRSAPIWPLGKGTRKTMVSFQRKVRVNSPIMVKQLALDDFGIAMLSNSACKTELANGQLVPILQEWPMEPFKVYGVYSSRRQLATNISAFLDFFVKRFSSQESLQSLMG
notes: AccR (SO_0839), LTTR of 303 amino acids, Shewanella oneidensis; full-length; calculated molecular weight of the recombinant protein 35.6 kDa; The methods describe growth of the BL21(DE3) cells in M9 medium supplemented with selenomethionine; also called ACCase regulator; His-tagged AccR; source: E. coli BL21(DE3), pET-28a, purified (Ni-NTA, size-exclusion chromatography); not shown: His6, …
stoichiometry N [2]: 2 and 4

B2: AccR effector-binding domain (EBD, residues 86-303) (domain or fragment, Shewanella oneidensis, UniProt Q8EIK0 86-303, looked up)
chain: THDDVSGSLRIAIPVSFSQELIANLCSGFMRLYPNVELDVQFTDNDIGLVGEGYDIAIKYGPLQSSDLVARLLFERQPILVASPGYLKTRGTPATPKELSDHSGILLGTSRSAPIWPLGKGTRKTMVSFQRKVRVNSPIMVKQLALDDFGIAMLSNSACKTELANGQLVPILQEWPMEPFKVYGVYSSRRQLATNISAFLDFFVKRFSSQESLQSLMG
notes: the model holds residues 89-302 (subunit A) and 90-300 (subunit B); The methods describe expression in M9 medium with selenomethionine, but also say that diffraction data were collected with native protein crystals; also called AccR EBD; regulatory domain; source: E. coli BL21(DE3), pET-28a, purified (Ni-NTA, size-exclusion chromatography)
binding result [3]: binds
